Assay results taken from patent US20230227577A1 (MYTHIC THERAPEUTICS, published 2023).

T1: mouse DLL3 protein (mouse, UniProt O88516 33-490, limits assumed)
T1 construct: also called murine DLL3
T1 sequence (looked up): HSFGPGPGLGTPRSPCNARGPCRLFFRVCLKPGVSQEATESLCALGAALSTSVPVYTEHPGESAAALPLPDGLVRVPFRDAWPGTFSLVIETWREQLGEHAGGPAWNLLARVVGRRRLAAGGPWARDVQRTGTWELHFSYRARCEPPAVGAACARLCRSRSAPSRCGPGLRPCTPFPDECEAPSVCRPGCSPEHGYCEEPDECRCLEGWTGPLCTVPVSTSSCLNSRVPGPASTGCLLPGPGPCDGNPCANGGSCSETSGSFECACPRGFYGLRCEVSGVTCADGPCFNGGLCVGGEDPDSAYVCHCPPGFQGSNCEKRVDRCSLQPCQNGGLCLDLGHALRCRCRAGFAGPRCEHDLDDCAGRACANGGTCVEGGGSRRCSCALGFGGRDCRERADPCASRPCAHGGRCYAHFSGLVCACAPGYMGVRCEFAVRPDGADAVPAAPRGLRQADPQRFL

T2: mouse DLL3 on CHO cells (mouse, UniProt O88516 33-592)
T2 construct: whole, on cells; also called CHO cells expressing mouse DLL3
T2 sequence (looked up): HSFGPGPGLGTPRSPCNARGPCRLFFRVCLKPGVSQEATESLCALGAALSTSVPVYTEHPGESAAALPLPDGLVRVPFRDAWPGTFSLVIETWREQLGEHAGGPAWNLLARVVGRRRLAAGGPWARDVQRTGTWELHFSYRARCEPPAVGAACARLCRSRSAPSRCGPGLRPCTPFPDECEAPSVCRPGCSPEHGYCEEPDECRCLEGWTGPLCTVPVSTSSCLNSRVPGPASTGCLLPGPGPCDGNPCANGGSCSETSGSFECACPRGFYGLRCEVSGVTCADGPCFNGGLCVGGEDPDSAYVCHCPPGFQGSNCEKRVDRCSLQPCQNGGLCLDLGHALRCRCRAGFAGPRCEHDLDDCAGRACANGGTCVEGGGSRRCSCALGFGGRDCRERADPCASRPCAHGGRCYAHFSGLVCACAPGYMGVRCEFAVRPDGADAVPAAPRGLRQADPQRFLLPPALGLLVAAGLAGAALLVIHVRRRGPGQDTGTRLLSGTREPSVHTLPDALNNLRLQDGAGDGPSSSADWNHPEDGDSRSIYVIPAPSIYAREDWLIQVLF

T3: DLL3 target antigen coated on Octet SA tips (binning experiment) (Homo sapiens (Human), UniProt Q9NYJ7 27-492, Probably biotinylated for capture on streptavidin (SA) tips. The site is not stated.)
T3 sequence: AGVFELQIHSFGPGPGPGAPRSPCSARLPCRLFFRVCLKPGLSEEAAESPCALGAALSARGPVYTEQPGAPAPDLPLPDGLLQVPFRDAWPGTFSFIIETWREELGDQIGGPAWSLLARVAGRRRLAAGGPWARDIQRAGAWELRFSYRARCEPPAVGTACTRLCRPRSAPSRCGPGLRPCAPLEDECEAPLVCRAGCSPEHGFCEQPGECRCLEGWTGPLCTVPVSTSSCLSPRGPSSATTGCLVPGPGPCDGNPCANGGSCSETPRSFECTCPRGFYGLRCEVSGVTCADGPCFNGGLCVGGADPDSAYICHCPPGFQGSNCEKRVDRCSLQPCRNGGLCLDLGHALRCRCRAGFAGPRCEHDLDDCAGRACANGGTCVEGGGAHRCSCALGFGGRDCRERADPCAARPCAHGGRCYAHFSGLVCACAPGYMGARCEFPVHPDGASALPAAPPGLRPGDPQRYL

T4: DLL3 (ELISA DLL3)
T4 construct: also called DLL3 protein in ELISA
T4 chain: T3 sequence

T5: recombinant human DLL3 protein (human, UniProt Q9NYJ7 27-492, limits assumed)
T5 construct: also called rhu DLL3; human biotinylated DLL3
T5 sequence (looked up): T3 sequence

B1: 3HCE87 anti-DLL3 VHH (VHH)
VHH: QVQLQESGGGLVQAGGSLRLSCAASGFIFDDYIIGWFRQAPGKEREFVAAISWSGSATAYADSVKGRFTISRDNAKNTLYLQMNTLKPEDTAVYYCAASSRGPYNSGSSYDYWGQGTQVTVSS
notes: In the binning assay it was used as a periplasmic extract
B2: 2HCE117 anti-DLL3 VHH (VHH)
VHH: QVQLQESGGGLVQPGGSLRLSCAASGFTFSSYAMSWVRQAPGKGLEWVSDINSGGGSTYYADSVKGRFTISRDNAKNTLYLQMDSLKPEDTAVYYCATPFEIGSWGQGTQVTVSS
notes: as for B1
B3: 3HCE4 anti-DLL3 VHH (VHH)
VHH: QVQLQESGGGLVQAGASLKLSCAVSGRAGSSYDMGWLRQAPGKEREFVAIITWSGNTAYKDSVKGRFIISRDNAKNTVYLEMNSLAPEDTAVYYCAAALSEKKYEYWGQGTQVTVSS
notes: as for B1
B4: anti-human DLL3 BiTE (bispecific antibody)
chain: QVQLQESGPGLVKPSETLSLTCTVSGGSISSYYWSWIRQPPGKGLEWIGYVYYSGTTNYNPSLKSRVTISVDTSKNQFSLKLSSVTAADTAVYYCASIAVTGFYFDYWGQGTLVTVSSGGGGSGGGGSGGGGSEIVLTQSPGTLSLSPGERVTLSCRASQRVNNNYLAWYQQRPGQAPRLLIYGASSRATGIPDRFSGSGSGTDFTLTISRLEPEDFAVYYCQQYDRSPLTFGGGTKLEIK
notes: also called DLL3 BiTEs

Columns and labels:
mouse DLL3 protein = biological target: T1, mouse DLL3 protein; test: Octet (DLL3 on AR2G tips), ELISA and FACS; values only in FIG. 3
mouse DLL3 on CHO cells = biological target: T2, mouse DLL3 on CHO cells; test: flow cytometry (FACS) on CHO cells expressing mouse DLL3
Procedure: (§1) Additional experiments were carried out to further characterize the binding properties of the anti-DLL3 constructs. Binding properties tested include dissociation constant (KD), off-rate (koff), binding to DLL3 protein by ELISA and binding to CHO cells expressing human, cyno or mouse DLL3. To obtain off-rate (koff), human biotinylated DLL3 was immobilized on Octet SA tips, and cynomolgus or mouse DLL3 was immobilized on Octet AR2G tips. For each DLL3 protein, the binding to a dilution series of each anti-DLL3 construct was measured using Fortebio Octet Red. The dissociation constant (KD), off-rate (koff) and other kinetic parameters for each anti-DLL3 construct were calculated using a 1:1 binding model. In addition, binding of these anti-DLL3 constructs to CHO cells expressing human, cyno or mouse DLL3 protein was analyzed using flow cytometry (FACS).

[1] = biological target: T3, DLL3 target antigen coated on Octet SA …; test: Octet binning on DLL3-coated SA tips; competitor: 3HCE4
Procedure: (§2) Antibody binning experiments were carried out for 5 anti-DLL3 VHHs and an anti-human DLL3 BiTE (SEQ ID NO: 756). The target antigen was coated on a series of Octet SA tips. Each series of tips was first soaked in a periplasmic extract containing one specific VHH. After the response signals reached saturation, the tips were transferred to a mix of PEs containing again the first VHH (at the same concentration) plus a different VHH (termed secondary VHH) for each tip of the series. Secondary VHH that still bind the target antigen in the presence of the first VHH will show an increased response, as compared to the binding response of the first VHH alone. This was repeated for each VHH as primary VHH until all VHH were tested against each other in both directions (as primary and as secondary binder). From the response data, the bins were deduced for each VHH. 2HCE117 and 3HCE4 show competition with the human DLL3 BiTEs, whereas 3HCE56 and 3HCE87 show a partial competition.

[2] = biological target: T3, DLL3 target antigen coated on Octet SA …; test: Octet binning on DLL3-coated SA tips; competitor: 2HCE27
Procedure: as §2

[3] = biological target: T3, DLL3 target antigen coated on Octet SA …; test: Octet binning on DLL3-coated SA tips; competitor: 3HCE56
Procedure: as §2

[4] = biological target: T3, DLL3 target antigen coated on Octet SA …; test: Octet binning on DLL3-coated SA tips; competitor: 3HCE87
Procedure: as §2

[5] = biological target: T3, DLL3 target antigen coated on Octet SA …; test: Octet binning on DLL3-coated SA tips; competitor: 2HCE117
Procedure: as §2

[6] = biological target: T3, DLL3 target antigen coated on Octet SA …; test: Octet binning on DLL3-coated SA tips; competitor: DLL3 BiTEs
Procedure: as §2

DLL3 (ELISA DLL3) = biological target: T4, DLL3 (ELISA DLL3); test: ELISA, ratio of the signal on DLL3 to the signal on the control
[7] = biological target: T5, recombinant human DLL3 protein; test: Fortebio Octet Red, DLL3 immobilised on tips, dilution series of the VHH, 1:1 binding model; KD error 7.00E-11; Full R2 0.9522
Procedure: as §1

[8] = biological target: T5, recombinant human DLL3 protein; test: Fortebio Octet Red, DLL3 immobilised on tips, dilution series of the VHH, 1:1 binding model; kon error 2.27E+03; Full R2 0.9522
Procedure: as §1

[9] = biological target: T5, recombinant human DLL3 protein; test: Fortebio Octet Red, DLL3 immobilised on tips, dilution series of the VHH, 1:1 binding model; koff error 5.76E-06; Full R2 0.9522
Procedure: as §1

[10] = biological target: T5, recombinant human DLL3 protein; test: Fortebio Octet Red, DLL3 immobilised on tips, dilution series of the VHH, 1:1 binding model; KD error 1.32E-09; Full R2 0.9111
Procedure: as §1

[11] = biological target: T5, recombinant human DLL3 protein; test: Fortebio Octet Red, DLL3 immobilised on tips, dilution series of the VHH, 1:1 binding model; kon error 7.26E+01; Full R2 0.9111
Procedure: as §1

[12] = biological target: T5, recombinant human DLL3 protein; test: Fortebio Octet Red, DLL3 immobilised on tips, dilution series of the VHH, 1:1 binding model; koff error 2.95E-06; Full R2 0.9111
Procedure: as §1

[13] = biological target: T5, recombinant human DLL3 protein; test: Fortebio Octet Red, DLL3 immobilised on tips, dilution series of the VHH, 1:1 binding model; KD error 2.22E-11; Full R2 0.9955
Procedure: as §1

[14] = biological target: T5, recombinant human DLL3 protein; test: Fortebio Octet Red, DLL3 immobilised on tips, dilution series of the VHH, 1:1 binding model; kon error 9.86E+02; Full R2 0.9955
Procedure: as §1

[15] = biological target: T5, recombinant human DLL3 protein; test: Fortebio Octet Red, DLL3 immobilised on tips, dilution series of the VHH, 1:1 binding model; koff error 2.13E-06; Full R2 0.9955
Procedure: as §1

Row | Binder | binding result (mouse DLL3 protein) | binding result (mouse DLL3 on CHO cells) | binning response (unit not given) [1] | binning response (unit not given) [2] | binning response (unit not given) [3] | binning response (unit not given) [4] | binning response (unit not given) [5] | binning response (unit not given) [6] | DLL3 / control (DLL3 (ELISA DLL3)) | Kd [7] [nM] | kon [8] [M⁻¹ s⁻¹] | koff [9] [s⁻¹] | Kd [10] [nM] | kon [11] [M⁻¹ s⁻¹] | koff [12] [s⁻¹] | Kd [13] [nM] | kon [14] [M⁻¹ s⁻¹] | koff [15] [s⁻¹]
1 | B1 | binds | binds | -54.4 | -48.2 | 204 | 0 | 1210 | 68.3 | 18.8 | 5.35 | 192000 | 0.00103 | – | – | – | – | – | –
2 | B2 | binds | binds | -90.1 | -73 | -207 | -98.7 | 0 | -23.2 | 29.4 | – | – | – | 101 | 5960 | 0.0006 | – | – | –
3 | B3 | binds | binds | 0 | 347 | 407 | 120 | 3510 | 9.03 | 65.7 | – | – | – | – | – | – | 5.15 | 249000 | 0.00128
4 | B4 | – | – | 121 | 82.5 | 1500 | 125 | 1280 | 0 | – | – | – | – | – | – | – | – | – | –
